Test [1] has as its target T1, kinesin-binding protein (human, UniProt Q96EK5 1-621).
T1 construct: The 6xHis tag is thrombin-cleavable; also called KBP; KBP-full; source: E. coli Rosetta2, purified (IMAC, SEC)
T1 sequence (looked up): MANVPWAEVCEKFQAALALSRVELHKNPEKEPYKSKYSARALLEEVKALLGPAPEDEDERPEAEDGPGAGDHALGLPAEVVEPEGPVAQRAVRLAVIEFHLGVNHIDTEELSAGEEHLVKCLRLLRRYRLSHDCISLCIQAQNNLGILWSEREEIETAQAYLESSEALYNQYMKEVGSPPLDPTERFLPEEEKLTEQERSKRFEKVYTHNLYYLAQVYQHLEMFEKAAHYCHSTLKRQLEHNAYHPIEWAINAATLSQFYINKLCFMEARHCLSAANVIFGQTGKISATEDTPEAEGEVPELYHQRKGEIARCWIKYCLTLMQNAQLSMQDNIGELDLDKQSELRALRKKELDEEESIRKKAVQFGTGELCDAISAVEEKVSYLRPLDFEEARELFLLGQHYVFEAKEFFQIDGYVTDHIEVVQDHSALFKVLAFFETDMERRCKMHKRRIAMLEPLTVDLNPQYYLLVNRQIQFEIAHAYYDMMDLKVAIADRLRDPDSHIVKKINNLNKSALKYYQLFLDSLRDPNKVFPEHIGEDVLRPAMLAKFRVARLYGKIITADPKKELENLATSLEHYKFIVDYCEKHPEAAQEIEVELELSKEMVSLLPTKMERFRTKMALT
The experiment in a line: cryo-EM structure; rigid KBP-full–KIF15_MD6S subset of particles from GO-coated holey gold grids; 6.9 Å reconstruction. The settings on record: both partners purified.

For test [2], the target named is T1, kinesin-binding protein. Briefly: pull-down; complex purified via IMAC using the 6xHis tag on the kinesin construct after incubation with a tenfold excess of KBP; SDS-PAGE of the purified complex. The settings on record: both partners purified.

B1: cysteine-light human KIF15 motor domain and neck linker construct (domain or fragment, UniProt Q9NS87 1-375, looked up)
chain: MAPGSKTELRSVTNGQSNQPSNEGDAIKVFVRIRPPAERSGSADGEQNLSLSVLSSTSLRLHSNPEPKTFTFDHVADVDTTQESVFATVAKSIVESCMSGYNGTIFAYGQTGSGKTFTMMGPSESDNFSHNLRGVIPRSFEYLFSLIDREKEKAGAGKSFLSKCSFIEIYNEQIYDLLDSASAGLYLREHIKKGVFVVGAVEQVVTSAAEAYQVLSGGWRNRRVASTSMNRESSRSHAVFTITIESMEKCNEIVNIRTSLLNLVDLAGSERQKDTHAEGMRLKEAGNINRSLSSLGQVITALVDVGNGKQRHVSYRDSKLTFLLRDSLGGNAKTAIIANVHPGSRSFGETLSTLNFAQRAKLIKNKAVVNEDTQC
notes: kinesin-12 KIF15, human, motor domain and neck linker, residues 1-375, six of eight cysteines mutated to serine and two cysteines introduced; also called KIF15_MD6S; source: pET-21a vector, expressed and purified as described previously (Rosenfeld et al., 2005); not shown: His6, C-terminal, kept
In the case of B1, in the test with kinesin-binding protein [1], the binding result is “binds”.

B2: human KIF1A motor domain and neck linker construct (domain or fragment, UniProt Q12756 1-362, looked up)
chain: MAGASVKVAVRVRPFNSREMSRDSKCIIQMSGSTTTIVNPKQPKETPKSFSFDYSYWSHTSPEDINYASQKQVYRDIGEEMLQHAFEGYNVCIFAYGQTGAGKSYTMMGKQEKDQQGIIPQLCEDLFSRINDTTNDNMSYSVEVSYMEIYCERVRDLLNPKNKGNLRVREHPLLGPYVEDLSKLAVTSYNDIQDLMDSGNKARTVAATNMNETSSRSHAVFNIIFTQKRHDAETNITTEKVSKISLVDLAGSERADSTGAKGTRLKEGANINKSLTTLGKVISALAEMDSGPNKNKKKKKTDFIPYRDSVLTWLLRENLGGNSRTAMVAALSPADINYDETLSTLRYADRAKQIRCNAVINE
notes: kinesin-3 KIF1A, human, motor domain and neck linker, residues 1-362; The HaloTag is TEV protease-cleavable; the printed size of the motor domain (about 40 kDa); source: E. coli BL21-Gold (DE3), purified (IMAC, SEC); not shown: His6, C-terminal, kept
With B2, the binding result with kinesin-binding protein [2] is listed as “binds”.

The record behind these values is paper PMC8025885, “Cryo-EM of kinesin-binding protein: challenges and opportunities from protein-surface interactions” (Acta Crystallographica. Section D, Structural Biology, 2021).
